Experimental data published in patent US20260176344A1 (SUZHOU ALPHAMAB, published 2026).

Key:
[1] = molecular target: T1, GIPR-ECD-laFc (an alpaca Fc-fused human GIPR extracellular region fragment) (human, UniProt P48546 22-138); assay: phage supernatant ELISA, coated antigen, anti-HA HRP, A450-A650
T1 construct: extracellular domain; not shown: alpaca Fc
T1 sequence (looked up): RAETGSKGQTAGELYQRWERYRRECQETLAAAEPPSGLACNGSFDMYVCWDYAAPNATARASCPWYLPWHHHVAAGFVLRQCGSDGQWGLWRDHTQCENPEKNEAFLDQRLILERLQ

[2] = molecular target: T2, Control-2 (C2), a laFc-containing fusion protein; assay: phage supernatant ELISA, coated control protein, anti-HA HRP, A450-A650
T2 construct: Negative panning and ELISA control

[3] = molecular target: T3, Control-1 (C1), a muFc-containing fusion protein; assay: as above
T3 construct: Negative panning and ELISA control

[4] = molecular target: T4, human GIPR expressed on HEK293T cells (human, UniProt P48546 22-466); assay: cell-based or functional assay
T4 sequence (looked up): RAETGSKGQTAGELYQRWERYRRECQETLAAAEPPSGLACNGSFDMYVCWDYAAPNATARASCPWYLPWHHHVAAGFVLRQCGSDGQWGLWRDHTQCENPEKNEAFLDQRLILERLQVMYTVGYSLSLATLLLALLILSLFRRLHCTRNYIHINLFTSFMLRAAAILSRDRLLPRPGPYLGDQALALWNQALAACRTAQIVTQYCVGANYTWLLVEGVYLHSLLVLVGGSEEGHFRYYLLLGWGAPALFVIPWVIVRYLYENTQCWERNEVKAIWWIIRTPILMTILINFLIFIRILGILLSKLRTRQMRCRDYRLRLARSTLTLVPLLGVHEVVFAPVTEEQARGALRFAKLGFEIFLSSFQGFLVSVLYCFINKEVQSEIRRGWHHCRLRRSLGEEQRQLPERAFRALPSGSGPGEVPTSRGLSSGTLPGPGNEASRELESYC

[5] = molecular target: T5, GIPR-ECD-chis (a his tag-fused human GIPR extracellular region fragment) (human, UniProt P48546 22-138, limits assumed); assay: BLI, antibody on AHC sensor, GIPR-ECD-chis in solution
T5 construct: extracellular domain; not shown: his tag
T5 sequence (looked up): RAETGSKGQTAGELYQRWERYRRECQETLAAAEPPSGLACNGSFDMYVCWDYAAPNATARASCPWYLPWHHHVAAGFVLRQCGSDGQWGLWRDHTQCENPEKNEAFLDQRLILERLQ

[6] = molecular target: T4, human GIPR expressed on HEK293T cells; assay: cell binding on 293T-GIPR cells, anti-human SULFO-TAG secondary antibody, MSD read-out plotted as MFI

Row | Binder | OD value [1] [OD] | OD value [2] [OD] | OD value [3] [OD] | EC50 of the inhibition rate (%) of GIP-induced cAMP expression in 293T-GIPR cells [4] [µg/mL] | Kd [5] [nM] | koff [5] [s⁻¹] | kon [5] [M⁻¹ s⁻¹] | EC50 [6] [nM]
1 | iGI-44 (VHH, Tested as supernatant of a helper-phage-rescued clone (pComb3XSS), detected by anti-HA tag) VHH: QVQLVESGGGLVQAGGSLKLSCAASGRTFSSKAMGWFRQAPGKEREFVAAINWSGDRTYHVNSIKGRFTISRDNAKNTVYLQMNSLKPEDTAVYYCTADRRDRATIPFQWHYWGQGTQVTVSS | 2.31 | 0.023 | 0.018 |  |  |  |  | 
2 | iGI-9 (VHH, Tested as supernatant of a helper-phage-rescued clone (pComb3XSS), detected by anti-HA tag) VHH: QVQLVESGGGLVQPGGSLRLSCETSKILFSSAYTMGWYRQAPGKQRELVATITTDYITNYVDSVKGRFTISRDNAKNTVYLQMNTLKLEDTAVYYCNARWGRDYWGQGTQVTVSS | 2.21 | 0.028 | 0.018 |  |  |  |  | 
3 | iGI-1198 (VHH, Tested as supernatant of a helper-phage-rescued clone (pComb3XSS), detected by anti-HA tag) VHH: QVQLQESGGGLVQPGGSLRLSCVASGSGFSIVAMGWYRQTPGKQRELVAAITSGGNTNYADSVKGRFTISRDNAKNTIYLQMNSLKPEDTAVYYCNADPGVVAGPYAGMDFWGKGTQVTVSS | 1.95 | 0.027 |  |  |  |  |  | 
4 | iGI-27 (VHH, Tested as supernatant of a helper-phage-rescued clone (pComb3XSS), detected by anti-HA tag) VHH: QVQLVESGGALVQTGGSLRLFCAASGDTICITNMNWYRQAPGKGREFVAAITRSGRTLYADYVKGRFTISRDNARNTMSLQMNSMTSEDTAVYYCNADQNQTICAAEPSAWGRGTQVTVSS | 2.23 | 0.023 | 0.018 |  |  |  |  | 
5 | iGI-72 (VHH, Tested as supernatant of a helper-phage-rescued clone (pComb3XSS), detected by anti-HA tag) VHH: QVQLVESGGGLVQPGGSLRLSCAASRYTLDYYAIGWFRQAPGKEREGVSCINSKDGSTYYADSVKGRFTISKDNAKNTVYLQMNSLKPEDTAVYYCAAGYDPWSGIPPVQAMCVMGYDYWGQGTQVTVSS | 2.2 | 0.077 | 0.019 |  |  |  |  | 
6 | Maridebart (antibody, V domains shown) VH: not shown VL: EIVMTQSPATLSVSPGERATLSCRASQSVSSNLAWYQQKPGQAPRLLIYGAATRATGIPARVSGSGSGTEFTLTISSLQSEDFAVYYCQQYNNWPLTFGGGTKVEIK |  |  |  | 0.351 | 16.3 | 0.00222 | 136000 | 1.18
7 | iGI-51 (VHH, Tested as supernatant of a helper-phage-rescued clone (pComb3XSS), detected by anti-HA tag) VHH: QVQLVESGGKLVQAGGSLRLDCVASGRTFSYYAIGWYRQAPGKEREFVAAIRASGGSTYYADSVKGRFTASRDNAKNTGYLQMNSLKPEDTAVYFCYAATIVPITPSTHGYWGQGTQVTVSS | 2.17 | 0.027 | 0.042 |  |  |  |  | 
